The text below walks through data of US20230220021A1 (UNIVERSITY OF COPENHAGEN, published 2023).

To fix the notation:
B1: cyclic nNOS β-hairpin peptide T110A (peptide)
peptide: cyclo(THLETAFTGDGTPKTIRVTQ[dP]GQ)
SMILES: CC[C@H](C)[C@@H]1NC(=O)[C@H]([C@@H](C)O)NC(=O)[C@H](CCCCN)NC(=O)[C@@H]2CCCN2C(=O)[C@H]([C@@H](C)O)NC(=O)CNC(=O)[C@H](CC(=O)O)NC(=O)CNC(=O)[C@H]([C@@H](C)O)NC(=O)[C@H](Cc2ccccc2)NC(=O)[C@H](C)NC(=O)[C@H]([C@@H](C)O)NC(=O)[C@H](CCC(=O)O)NC(=O)[C@H](CC(C)C)NC(=O)[C@H](Cc2c[nH]cn2)NC(=O)[C@H]([C@@H](C)O)NC(=O)[C@H](CCC(N)=O)NC(=O)CNC(=O)[C@H]2CCCN2C(=O)[C@H](CCC(N)=O)NC(=O)[C@H]([C@@H](C)O)NC(=O)[C@H](C(C)C)NC(=O)[C@H](CCCNC(=N)N)NC1=O
B2: cyclic nNOS β-hairpin peptide T116A (peptide)
peptide: cyclo(THLETTFTGDGAPKTIRVTQ[dP]GQ)
SMILES: CC[C@H](C)[C@@H]1NC(=O)[C@H]([C@@H](C)O)NC(=O)[C@H](CCCCN)NC(=O)[C@@H]2CCCN2C(=O)[C@H](C)NC(=O)CNC(=O)[C@H](CC(=O)O)NC(=O)CNC(=O)[C@H]([C@@H](C)O)NC(=O)[C@H](Cc2ccccc2)NC(=O)[C@H]([C@@H](C)O)NC(=O)[C@H]([C@@H](C)O)NC(=O)[C@H](CCC(=O)O)NC(=O)[C@H](CC(C)C)NC(=O)[C@H](Cc2c[nH]cn2)NC(=O)[C@H]([C@@H](C)O)NC(=O)[C@H](CCC(N)=O)NC(=O)CNC(=O)[C@H]2CCCN2C(=O)[C@H](CCC(N)=O)NC(=O)[C@H]([C@@H](C)O)NC(=O)[C@H](C(C)C)NC(=O)[C@H](CCCNC(=N)N)NC1=O
B3: cyclic nNOS β-hairpin peptide V122A (peptide)
peptide: cyclo(THLETTFTGDGTPKTIRATQ[dP]GQ)
SMILES: CC[C@H](C)[C@@H]1NC(=O)[C@H]([C@@H](C)O)NC(=O)[C@H](CCCCN)NC(=O)[C@@H]2CCCN2C(=O)[C@H]([C@@H](C)O)NC(=O)CNC(=O)[C@H](CC(=O)O)NC(=O)CNC(=O)[C@H]([C@@H](C)O)NC(=O)[C@H](Cc2ccccc2)NC(=O)[C@H]([C@@H](C)O)NC(=O)[C@H]([C@@H](C)O)NC(=O)[C@H](CCC(=O)O)NC(=O)[C@H](CC(C)C)NC(=O)[C@H](Cc2c[nH]cn2)NC(=O)[C@H]([C@@H](C)O)NC(=O)[C@H](CCC(N)=O)NC(=O)CNC(=O)[C@H]2CCCN2C(=O)[C@H](CCC(N)=O)NC(=O)[C@H]([C@@H](C)O)NC(=O)[C@H](C)NC(=O)[C@H](CCCNC(=N)N)NC1=O
B4: cyclic nNOS β-hairpin peptide T112A (peptide)
peptide: cyclo(THLETTFAGDGTPKTIRVTQ[dP]GQ)
SMILES: CC[C@H](C)[C@@H]1NC(=O)[C@H]([C@@H](C)O)NC(=O)[C@H](CCCCN)NC(=O)[C@@H]2CCCN2C(=O)[C@H]([C@@H](C)O)NC(=O)CNC(=O)[C@H](CC(=O)O)NC(=O)CNC(=O)[C@H](C)NC(=O)[C@H](Cc2ccccc2)NC(=O)[C@H]([C@@H](C)O)NC(=O)[C@H]([C@@H](C)O)NC(=O)[C@H](CCC(=O)O)NC(=O)[C@H](CC(C)C)NC(=O)[C@H](Cc2c[nH]cn2)NC(=O)[C@H]([C@@H](C)O)NC(=O)[C@H](CCC(N)=O)NC(=O)CNC(=O)[C@H]2CCCN2C(=O)[C@H](CCC(N)=O)NC(=O)[C@H]([C@@H](C)O)NC(=O)[C@H](C(C)C)NC(=O)[C@H](CCCNC(=N)N)NC1=O
B5: cyclic nNOS β-hairpin peptide T123A (peptide)
peptide: cyclo(THLETTFTGDGTPKTIRVAQ[dP]GQ)
SMILES: CC[C@H](C)[C@@H]1NC(=O)[C@H]([C@@H](C)O)NC(=O)[C@H](CCCCN)NC(=O)[C@@H]2CCCN2C(=O)[C@H]([C@@H](C)O)NC(=O)CNC(=O)[C@H](CC(=O)O)NC(=O)CNC(=O)[C@H]([C@@H](C)O)NC(=O)[C@H](Cc2ccccc2)NC(=O)[C@H]([C@@H](C)O)NC(=O)[C@H]([C@@H](C)O)NC(=O)[C@H](CCC(=O)O)NC(=O)[C@H](CC(C)C)NC(=O)[C@H](Cc2c[nH]cn2)NC(=O)[C@H]([C@@H](C)O)NC(=O)[C@H](CCC(N)=O)NC(=O)CNC(=O)[C@H]2CCCN2C(=O)[C@H](CCC(N)=O)NC(=O)[C@H](C)NC(=O)[C@H](C(C)C)NC(=O)[C@H](CCCNC(=N)N)NC1=O
B6: cyclic nNOS β-hairpin peptide T119A (peptide)
peptide: cyclo(THLETTFTGDGTPKAIRVTQ[dP]GQ)
SMILES: CC[C@H](C)[C@@H]1NC(=O)[C@H](C)NC(=O)[C@H](CCCCN)NC(=O)[C@@H]2CCCN2C(=O)[C@H]([C@@H](C)O)NC(=O)CNC(=O)[C@H](CC(=O)O)NC(=O)CNC(=O)[C@H]([C@@H](C)O)NC(=O)[C@H](Cc2ccccc2)NC(=O)[C@H]([C@@H](C)O)NC(=O)[C@H]([C@@H](C)O)NC(=O)[C@H](CCC(=O)O)NC(=O)[C@H](CC(C)C)NC(=O)[C@H](Cc2c[nH]cn2)NC(=O)[C@H]([C@@H](C)O)NC(=O)[C@H](CCC(N)=O)NC(=O)CNC(=O)[C@H]2CCCN2C(=O)[C@H](CCC(N)=O)NC(=O)[C@H]([C@@H](C)O)NC(=O)[C@H](C(C)C)NC(=O)[C@H](CCCNC(=N)N)NC1=O
B7: cyclic nNOS β-hairpin peptide ΔT112 (peptide)
peptide: cyclo(THLETTFGDGTPKTIRVTQ[dP]GQ)
SMILES: CC[C@H](C)[C@@H]1NC(=O)[C@H]([C@@H](C)O)NC(=O)[C@H](CCCCN)NC(=O)[C@@H]2CCCN2C(=O)[C@H]([C@@H](C)O)NC(=O)CNC(=O)[C@H](CC(=O)O)NC(=O)CNC(=O)[C@H](Cc2ccccc2)NC(=O)[C@H]([C@@H](C)O)NC(=O)[C@H]([C@@H](C)O)NC(=O)[C@H](CCC(=O)O)NC(=O)[C@H](CC(C)C)NC(=O)[C@H](Cc2c[nH]cn2)NC(=O)[C@H]([C@@H](C)O)NC(=O)[C@H](CCC(N)=O)NC(=O)CNC(=O)[C@H]2CCCN2C(=O)[C@H](CCC(N)=O)NC(=O)[C@H]([C@@H](C)O)NC(=O)[C@H](C(C)C)NC(=O)[C@H](CCCNC(=N)N)NC1=O
B8: cyclic nNOS β-hairpin peptide ΔD114 (peptide)
peptide: cyclo(THLETTFTGGTPKTIRVTQ[dP]GQ)
SMILES: CC[C@H](C)[C@@H]1NC(=O)[C@H]([C@@H](C)O)NC(=O)[C@H](CCCCN)NC(=O)[C@@H]2CCCN2C(=O)[C@H]([C@@H](C)O)NC(=O)CNC(=O)CNC(=O)[C@H]([C@@H](C)O)NC(=O)[C@H](Cc2ccccc2)NC(=O)[C@H]([C@@H](C)O)NC(=O)[C@H]([C@@H](C)O)NC(=O)[C@H](CCC(=O)O)NC(=O)[C@H](CC(C)C)NC(=O)[C@H](Cc2c[nH]cn2)NC(=O)[C@H]([C@@H](C)O)NC(=O)[C@H](CCC(N)=O)NC(=O)CNC(=O)[C@H]2CCCN2C(=O)[C@H](CCC(N)=O)NC(=O)[C@H]([C@@H](C)O)NC(=O)[C@H](C(C)C)NC(=O)[C@H](CCCNC(=N)N)NC1=O
B9: cyclic nNOS β-hairpin peptide ΔT116 (peptide)
peptide: cyclo(THLETTFTGDGPKTIRVTQ[dP]GQ)
SMILES: CC[C@H](C)[C@@H]1NC(=O)[C@H]([C@@H](C)O)NC(=O)[C@H](CCCCN)NC(=O)[C@@H]2CCCN2C(=O)CNC(=O)[C@H](CC(=O)O)NC(=O)CNC(=O)[C@H]([C@@H](C)O)NC(=O)[C@H](Cc2ccccc2)NC(=O)[C@H]([C@@H](C)O)NC(=O)[C@H]([C@@H](C)O)NC(=O)[C@H](CCC(=O)O)NC(=O)[C@H](CC(C)C)NC(=O)[C@H](Cc2c[nH]cn2)NC(=O)[C@H]([C@@H](C)O)NC(=O)[C@H](CCC(N)=O)NC(=O)CNC(=O)[C@H]2CCCN2C(=O)[C@H](CCC(N)=O)NC(=O)[C@H]([C@@H](C)O)NC(=O)[C@H](C(C)C)NC(=O)[C@H](CCCNC(=N)N)NC1=O

[ ]: non-standard residue; d: D form.

T1 sequence (P78352 160-246): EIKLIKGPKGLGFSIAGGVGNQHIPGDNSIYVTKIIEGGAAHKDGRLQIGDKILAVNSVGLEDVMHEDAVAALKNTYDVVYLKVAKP

One assay has as its target T1, (7× His)-PSD-95-PDZ2 wild type (UniProt P78352 160-246).
T1 construct: domain: PDZ2; recombinant from E. coli; also called PSD-95-PDZ2 WT; not shown: 7x His tag
Put plainly: FP competition.
Take B1: affinity was put at a Ki of 3930 nM and the “Relative Ki (Ki mut/Ki WT)” value came out at 2.62.

With B2, the affinity, expressed as Ki, was 1240 nM and the “Relative Ki (Ki mut/Ki WT)” value stood at 0.83.

In the case of B3, affinity was put at a Ki of 2230 nM and the “Relative Ki (Ki mut/Ki WT)” value is 1.49.

Take B4: affinity was put at a Ki of 1770 nM and the “Relative Ki (Ki mut/Ki WT)” value amounted to 1.18.

Take B5: the Ki was found to be 1550 nM and the “Relative Ki (Ki mut/Ki WT)” value is 1.03.

In the case of B6, the Ki turned out to be 17000 nM and the “Relative Ki (Ki mut/Ki WT)” value stood at 11.3.

The target in the next assay is T1, (7× His)-PSD-95-PDZ2 wild type. Put plainly: FP competition. The source holds these as a separate data set.
Procedure: Fluorescence polarization (FP). FP assays were performed in a 384-well plate format. Fluorescence polarization was measured using a Safire 2 plate reader. The instrument Z-factor was optimized for each assay. The G-factor was calibrated to an initial milli polarization value of 20. […] Every measurement was performed in NaPI 50 mM, 50 mM NaCl and 1% BSA at pH 7.2, 25° C. […] The curves were done in triplicates. […] The mili polarization (mP) values were plotted as a function of peptide concentration and fitted to a sigmoidal dose-response curve using Prism software 8.0 (GraphPad). The Kᵢ values were calculated according to Nikolovska-Coleska Z. et al.⁴⁰⁻⁴¹
Regarding B7, the affinity, expressed as Ki, was 690 nM.

B8 yielded a Ki of 700 nM.

As for B9, the inhibition constant Ki came out at 1430 nM. This Ki lies about 2-fold higher than the previous one.

On to THLETXFTGDGTPKTIRVTQPGQ (cyclic; D-Pro; allo-Thr at 110) [cyclic nNOS β-hairpin peptide AlloT110], for which the Ki was 2290 nM.

XHLETTFTGDGTPKTIRVTQPGQ (cyclic; D-Pro; allo-Thr at 105) [cyclic nNOS β-hairpin peptide AlloT105] displayed a Ki of 2650 nM.

A further assay shares this target. The assay can be described thus: FP competition. This is another data set of the same source.
Procedure: Fluorescence polarization (FP). FP assays were performed in a 384-well plate format. Fluorescence polarization was measured using a Safire 2 plate reader. The instrument Z-factor was optimized for each assay. The G-factor was calibrated to an initial milli polarization value of 20. […] Every measurement was performed in NaPI 50 mM, 50 mM NaCl and 1% BSA at pH 7.2, 25° C. […] The curves were done in triplicates. Then, the polarization was fitted into a one-site binding model using Prism software 8.0 (GraphPad), from which the Kd can be measured. […] The mili polarization (mP) values were plotted as a function of peptide concentration and fitted to a sigmoidal dose-response curve using Prism software 8.0 (GraphPad). The Kᵢ values were calculated according to Nikolovska-Coleska Z. et al.⁴⁰⁻⁴¹
In turn, THLETTFTGDGTPKXIRVTQPGQ (cyclic; D-Pro; N-methyl Thr 119) [cyclic nNOS β-hairpin peptide N-Me-T119] returned a Ki of 4880 nM.

With THLETTFTGDGXPKTIRVTQPGQ (cyclic; D-Pro; N-methyl Thr 116) [cyclic nNOS β-hairpin peptide N-Me-T116], the Ki came out at 930 nM.

The molecule THLETTFTGXGTPKTIRVTQPGQ (cyclic; D-Pro; N-methyl Asp 114) [cyclic nNOS β-hairpin peptide N-Me-D114] showed a Ki of 620 nM.

THLETTFTGDXTPKTIRVTQPGQ (cyclic; D-Pro; N-methyl Gly 115) [cyclic nNOS β-hairpin peptide N-Me-G115] gave a Ki of 820 nM.

THLETTFTXDGTPKTIRVTQPGQ (cyclic; D-Pro; N-methyl Gly 113) [cyclic nNOS β-hairpin peptide N-Me-G113] gave a Ki of 6190 nM.

THLETTFTGDGTPKTIRXTQPGQ (cyclic; D-Pro; N-methyl Val 122) [cyclic nNOS β-hairpin peptide N-Me-V122]: the Ki was 6170 nM.

THLETTFTGDGTPKTXRVTQPGQ (cyclic; D-Pro; N-methyl Ile 120) [cyclic nNOS β-hairpin peptide N-Me-I120] came in with an inhibitory constant (Ki) of 1120 nM.

With THLETTFXGDGTPKTIRVTQPGQ (cyclic; D-Pro; N-methyl Thr 112) [cyclic nNOS β-hairpin peptide N-Me-T112], affinity was put at a Ki of 1080 nM.

In the case of THLETTFTGDGTPKTIRVTXPGQ (cyclic; D-Pro; N-methyl Gln 124) [cyclic nNOS β-hairpin peptide N-Me-Q124], the Ki was 2200 nM.

The molecule THLETXFTGDGTPKTIRVTQPGQ (cyclic; D-Pro; N-methyl Thr 110) [cyclic nNOS β-hairpin peptide N-Me-T110] gave a Ki of 1470 nM. This Ki and that of the molecule before are within 1.5-fold of each other.

On to THLETTFTGDGTPKTIXVTQPGQ (cyclic; D-Pro; N-methyl Arg 121) [cyclic nNOS β-hairpin peptide N-Me-R121], for which the affinity corresponds to a Ki of 990 nM.

As usually defined, the Ki is the equilibrium dissociation constant of an inhibitor or competing ligand from its target. Read a high Ki as lower affinity.
